The values below come from patent US20100196385A1 (AstraZeneca / MedImmune, published 2010).

The target of test [1] is T1, full length human DLL4 (human, UniProt Q9NR61 27-685).
T1 construct: whole, on cells; also called native DLL4 expressed in HEK293 cells
The experiment in a line: FACS titration, HEK293 cells with human DLL4. In short, it runs like this: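 Antibody titration on HEK293 cells expressing full-length human DLL4, detected with anti-human IgG-Fc-Cy5 plus 7AAD for 30 minutes at 4° C. by flow cytometry. KD estimated by nonlinear fit of mean fluorescence vs total mAb concentration, with receptor number, background and proportionality constant floating.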

The target in a further test is T2, human Dll1 (human, UniProt O00548 18-723).
T2 construct: whole, on cells
T2 sequence (looked up): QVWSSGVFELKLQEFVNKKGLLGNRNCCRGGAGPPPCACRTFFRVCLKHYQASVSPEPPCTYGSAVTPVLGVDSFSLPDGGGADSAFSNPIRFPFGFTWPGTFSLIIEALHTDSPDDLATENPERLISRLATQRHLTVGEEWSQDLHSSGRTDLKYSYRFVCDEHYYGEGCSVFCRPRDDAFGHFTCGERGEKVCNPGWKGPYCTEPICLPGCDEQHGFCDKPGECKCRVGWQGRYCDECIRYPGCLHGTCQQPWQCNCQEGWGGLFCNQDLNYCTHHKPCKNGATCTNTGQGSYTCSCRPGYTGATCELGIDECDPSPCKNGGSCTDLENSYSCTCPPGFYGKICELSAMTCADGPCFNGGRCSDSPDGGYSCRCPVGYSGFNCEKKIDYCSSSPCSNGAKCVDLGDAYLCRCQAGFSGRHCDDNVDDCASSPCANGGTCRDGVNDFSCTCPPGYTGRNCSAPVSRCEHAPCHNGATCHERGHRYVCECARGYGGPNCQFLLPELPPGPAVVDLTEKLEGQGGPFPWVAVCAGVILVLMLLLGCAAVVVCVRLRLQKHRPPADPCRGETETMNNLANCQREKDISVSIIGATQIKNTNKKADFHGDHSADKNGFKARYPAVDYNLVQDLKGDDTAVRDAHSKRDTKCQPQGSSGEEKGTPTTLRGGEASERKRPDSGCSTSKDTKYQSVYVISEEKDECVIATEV
The experiment in a line: FACS, 15 µg/ml, 293T cells with human Dll1 vs mock. In short, it runs like this:
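Flow cytometry; 1 h antibody staining at 4 °C in PBS/2% FCS. Value = geometric mean fluorescence shift over mock-transfected cells.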

For test [2], the target named is T3, human Jagged1 (human, UniProt P78504 34-1218).
T3 construct: whole, on cells
Briefly: FMAT, hybridoma supernatant, 293T cells with human Jagged1. The method, boiled down:
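Transfected 293T cells (3000 expressing plus 15000 mock-transfected per well), in PBS with 2% FBS, were mixed with hybridoma supernatant and Cy5 goat anti-human IgG Fc (750 ng/ml final). After 3 h at room temperature, binding was read by FMAT fluorescence. Notch1/Fc served as positive control for DLL4 and Notch3/Fc for Jagged1.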

For test [3], the target named is T1, full length human DLL4. Briefly: FACS competition, unlabeled antibody vs competitor Alexa-647 4B4, HEK293 cells with human DLL4. The protocol:
The ability of the purified DLL4 antibodies to inhibit the binding of other DLL4 antibodies to human DLL4 was assessed using a FACS assay. Briefly, antibodies were directly labelled with Alexa-647 using a commercially available labelling kit (e.g. Molecular Probes catalog #A30009, A-20186) as per the manufacturer's instructions. To determine the level of cross-competition, unlabelled anti-DLL4 antibodies (final concentration: 10-0.01 μg/ml) diluted in PBS containing 2% FCS were added to DLL4-expressing HEK 293 cells (as described in example 6; 50000 cells/well diluted in PBS containing 2% FCS) and incubated for 1 h at 4° C. Subsequently, Alexa-647 labeled anti-DLL4 antibodies were added at a final concentration of 0.1 μg/ml and plates were incubated for a further 1 h at 4° C. prior to washing and reading on a FACSCalibur instrument. Data that summarizes the ability of unlabeled antibodies (10, 1, 0.1 μg/ml) to compete with labeled 21H3RK for binding to human DLL4 is included in FIG. 3. Additional data that summarizes the ability of unlabeled antibodies to compete with labeled 21H3RK and 4B4 for binding to human DLL4 is included in Table 22.

Test [4] deals with T3, human Jagged1. Briefly: FACS, up to 300 µg/ml, HEK-293 cells stably overexpressing human Jagged1.

T3 sequence (P78504 34-1218): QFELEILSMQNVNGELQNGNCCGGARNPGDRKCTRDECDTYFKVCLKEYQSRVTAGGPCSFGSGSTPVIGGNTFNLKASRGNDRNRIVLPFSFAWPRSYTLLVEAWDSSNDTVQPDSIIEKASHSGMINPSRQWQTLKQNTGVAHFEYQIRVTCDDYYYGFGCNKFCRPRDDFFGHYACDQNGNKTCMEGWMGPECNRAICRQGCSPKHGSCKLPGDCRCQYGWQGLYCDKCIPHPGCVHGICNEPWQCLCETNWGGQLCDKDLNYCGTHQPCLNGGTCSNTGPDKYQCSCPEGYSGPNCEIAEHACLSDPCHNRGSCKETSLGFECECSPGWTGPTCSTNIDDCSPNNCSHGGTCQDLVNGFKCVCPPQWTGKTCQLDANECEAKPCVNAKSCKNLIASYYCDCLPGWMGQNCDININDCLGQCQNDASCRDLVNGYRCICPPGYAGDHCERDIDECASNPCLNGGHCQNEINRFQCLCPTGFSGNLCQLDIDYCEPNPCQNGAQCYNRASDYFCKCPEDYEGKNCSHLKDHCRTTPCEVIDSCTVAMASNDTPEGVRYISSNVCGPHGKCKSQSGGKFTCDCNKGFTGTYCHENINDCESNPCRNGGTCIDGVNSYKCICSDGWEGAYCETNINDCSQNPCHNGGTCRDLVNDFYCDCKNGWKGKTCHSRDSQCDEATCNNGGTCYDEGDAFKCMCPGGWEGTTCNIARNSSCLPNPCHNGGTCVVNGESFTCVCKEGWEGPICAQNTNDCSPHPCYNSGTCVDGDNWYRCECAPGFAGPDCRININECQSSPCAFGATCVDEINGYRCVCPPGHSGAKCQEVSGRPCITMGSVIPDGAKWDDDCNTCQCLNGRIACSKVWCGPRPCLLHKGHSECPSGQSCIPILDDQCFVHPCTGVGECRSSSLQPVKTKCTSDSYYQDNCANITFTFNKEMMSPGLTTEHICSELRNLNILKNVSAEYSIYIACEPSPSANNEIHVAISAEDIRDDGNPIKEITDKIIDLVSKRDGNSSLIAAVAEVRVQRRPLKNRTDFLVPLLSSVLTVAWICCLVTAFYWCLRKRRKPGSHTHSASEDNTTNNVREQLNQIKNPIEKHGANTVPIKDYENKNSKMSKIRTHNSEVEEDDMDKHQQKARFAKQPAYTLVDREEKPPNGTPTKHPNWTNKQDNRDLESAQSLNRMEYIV
T1 sequence (Q9NR61 27-685): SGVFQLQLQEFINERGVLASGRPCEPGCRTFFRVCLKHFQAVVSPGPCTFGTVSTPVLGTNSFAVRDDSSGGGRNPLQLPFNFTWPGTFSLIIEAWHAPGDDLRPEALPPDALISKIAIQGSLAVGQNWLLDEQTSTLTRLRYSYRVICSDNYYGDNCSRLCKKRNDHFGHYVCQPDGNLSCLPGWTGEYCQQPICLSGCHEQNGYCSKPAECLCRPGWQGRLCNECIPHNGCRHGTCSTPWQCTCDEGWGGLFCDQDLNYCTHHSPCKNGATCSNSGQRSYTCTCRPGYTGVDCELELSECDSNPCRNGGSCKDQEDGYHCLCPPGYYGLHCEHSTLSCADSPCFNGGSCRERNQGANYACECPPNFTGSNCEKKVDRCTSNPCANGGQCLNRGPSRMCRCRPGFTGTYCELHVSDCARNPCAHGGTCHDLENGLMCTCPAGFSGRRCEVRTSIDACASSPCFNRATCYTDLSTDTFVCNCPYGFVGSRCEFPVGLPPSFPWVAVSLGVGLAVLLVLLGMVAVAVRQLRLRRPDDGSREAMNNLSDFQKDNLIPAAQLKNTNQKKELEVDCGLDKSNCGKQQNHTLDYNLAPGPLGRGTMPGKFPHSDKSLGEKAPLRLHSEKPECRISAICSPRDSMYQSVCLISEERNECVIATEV

B1: 21H3 (antibody, IgG4, V domains shown)
VH: QVQLVQSGAEVKKPGASVKVSCKASGYTFTNYGITWVRQAPGQGPEWMGWISAYNGNTNYAQKLQDRVTVTTDTSTSTAYMELRSLRSDDTAVYYCARDRVPRIPVTTEAFDIWGQGTMVTVSS
VL: QSVLTQPPSASGTPGQRVTISCSGSSSNIGSYFVYWYQQLPGTAPKLLIYRNNQRPSGVPDRFSGSESGTSASLAISGLRSEDEADYYCAAWDDSLSGHWVFGGGTRLTVL
notes: Fully human; used for IgG4 rows and where no isotype is printed; also called 21H3 IgG4
On to B1, for which the affinity with full length human DLL4 [1], expressed as Kd, was 0.359 nM. The Dll1/mock ratio with human Dll1 came to 1.16. In the test with human Jagged1 [2], this molecule returned a Count of 0, an FL1 of 0 and an FL1 x count of 0. In the test with full length human DLL4 [3], this molecule came in with an IC50 of 0.274 µg/mL.

B2: 4B4 (antibody, IgG4, V domains shown)
VH: QVLLIQSGAEVKKPGASVQVSCKASGYTFTNYGVIWVRQAPGQGLEYMGWISAYNGNTNYAQKLQDRVTMTSDTSTTTAYMELRSLRSDDTAVYYCARELGSSFDYWGQGTLVTVSS
VL: SYELTQPPSVSVSPGQTARITCSGDALPKKYAYWYQQKSGQAPVLVIYEDIKRPSGIPERFSGSSSGTMATLTISGAQVEDEADYYCFSTDNSGDHSVFGGGTKLTVL
notes: Fully human; used for IgG4 rows and where no isotype is printed; also called 4B4 IgG4; 4B4.1
B2 had a Kd with full length human DLL4 [1] of 0.516 nM. Moreover, in the test with human Dll1, the Dll1/mock ratio worked out at 1.23. Also, in the test with human Jagged1 [2], the Count turned out to be 2, the FL1 stood at 2590 and the FL1 x count was 5180. Besides, the fold over background in the test with human Jagged1 [4] was less than 2.5 fold. In addition, the 50% inhibitory concentration (IC50) in the test with full length human DLL4 [3] was 0.348 µg/mL.

B3: 9G8 (antibody, IgG4, V domains shown)
VH: QLQLQESGPGLVKPSETLSLSCTVSGGSISSSSSYWGLIRQPPGKGLEWIGSIYYSGSTYYSPSLKSRVSISVDTSKNQFSLKLSSVTAADTAVYFCARQGYGGHPDVFDIWGQGTMVTVSS
VL: SSELTQSPSVSVSPGQTARITCSGDKLGDVYVCWYQQKTGQSPVLVIYEDTKRPSGIPERFSGSNSGNTATLTISGTQVMDEADYYCQAWDSTTAVIFGGGTKLTVL
notes: Fully human; used for IgG4 rows and where no isotype is printed; also called 9G8 IgG4
B3 had a Kd with full length human DLL4 [1] of 0.999 nM. In addition, the Dll1/mock ratio in the test with human Dll1 came out at 1.23. For the same molecule, in the test with human Jagged1 [2], the Count was determined as 0, the FL1 came to 0 and the FL1 x count turned out to be 0. This molecule also registered a fold over background in the test with human Jagged1 [4] of less than 2.5 fold. The same molecule registered an IC50 in the test with full length human DLL4 [3] of 0.856 µg/mL.

B4: 2H10 (antibody, IgG4, V domains shown)
VH: QVQLVESGGGVVQPGRSLRLSCAASGFTFSRHGMHWVRQAPGKGLEWVAVVWFDGSNIYYADSVKGRFTISRDNSKNTLYLQMNSLRAEDTAMYYCARDSRIAAADYWGQGTLVTVSS
VL: SYELTQPPSVSVSPGQTVSITCSGDKLGDKYVCWYQQKPGQSPVLVIYQESKRPSGIPERFSGSSSGNTATLTISGTQAMDEADYYCQTWDSSLVVFGGGTKLTVL
notes: Fully human; used for IgG4 rows and where no isotype is printed; also called 2H10 IgG4
In the case of B4, in the test with full length human DLL4 [1], binding was put at a Kd of 0.882 nM. The Dll1/mock ratio with human Dll1 was 1.1. Also, in the test with human Jagged1 [2], the Count was found to be 5, the FL1 was determined as 5030 and the FL1 x count was determined as 25200. Also, the fold over background with human Jagged1 [4] was less than 2.5 fold. The molecule further returned an IC50 with full length human DLL4 [3] of 1.15 µg/mL.
